Data on 15 compounds can be found in patent publication US6855515B1, “Autoantigenic fragments, methods and assays” (Merck & Co., Inc., priority 1998, dated 2005).

The subject of assay [1] is endogenous DNA-PKcs, NuMA and PARP in HeLa cell lysates. Put plainly: Cleavage of endogenous substrates in HeLa lysates after adding purified granzyme B, with caspase inhibitors. The class given is biochemical. The note with it: for cleavage of PARP: inhibitor added 15 minutes prior to 12.5 nM granzyme B, 100 nM Ac-DEVD-CHO or 2 mM iodoacetamide. As for the experimental part:
(§1) Control HeLa lysates were prepared using methods commonly applied in the art, as described in Casciola-Rosen et al., 1994. […] The mixtures were incubated for 15 mn on ice to facilitate binding of the inhibitors to proteases prior to performing cleavage reactions at 37° C. for 60 min. After electrophoresing the samples on 10% SDS-polyacrylamide gels containing 0.087% bisacrylamide, the intact proteins and their cleaved fragments were visualized by immunoblotting.

The target of assay [2] is T1, granzyme B (Homo sapiens, UniProt P10144).
T1 construct: Some of these preparations were used for the further purification of granzyme B (Tschopp, 1994); endogenous in cells; host or cells: YT cells (human NK cell line), cytoplasmic granules
T1 sequence (P10144 21-247): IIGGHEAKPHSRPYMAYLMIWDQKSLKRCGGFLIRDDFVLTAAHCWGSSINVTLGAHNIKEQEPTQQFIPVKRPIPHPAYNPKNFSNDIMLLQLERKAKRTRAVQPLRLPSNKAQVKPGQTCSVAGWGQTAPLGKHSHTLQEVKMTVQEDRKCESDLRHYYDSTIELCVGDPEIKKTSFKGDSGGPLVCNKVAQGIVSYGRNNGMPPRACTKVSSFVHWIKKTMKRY
Put plainly: Susceptibility of autoantigens to cleavage by purified granzyme B (HeLa lysate immunoblot or immunoprecipitates). The assay is classed as biochemical. The note with it: in vitro. As to the method: To determine whether susceptibility to direct cleavage by granzyme B was an isolated feature of PARP, NuMA and DNA-PKcs shown above, or whether it was a more general feature of autoantigens, a variety of well-defined autoantigens selected from across the spectrum of systemic autoimmune diseases were tested for susceptibility to cleavage by purified granzyume B. The efficiency of cleavage of the substrates by purified granzyme B was also noted (Table 3). Initially, a series of autoantibodies of well-defined specificity were used to immunoblot lysates of HeLa cells that had been incubated in vitro with or without granzyme B. Lysates were pre-treated with iodoacetamide (IAA) to prevent interference by endogenous caspase activity.
To perform these studies, HeLa cells were radiolabeled with [^35S] methionine/cysteine, and proteins were immunoprecipitated using human autoantibodies. Protein A-agarose beads containing washed precipitated proteins were resuspended in buffer supporting the activity of granzyme B, and incubated in the absence or presence of added purified granzyme B. Reaction products were visualized using SDS-PAGE and fluorography. To confirm the validity of this approach, several different autoantigens known to be cleaved by granzyme B, as well as several autoantigens and non-autoantigens that are not cleaved by granzyme B, were tested. Using autoantibodies that both immunoblot and immunprecipitate, the cleavage profiles obtained using granzyme B to cleave molecules in lysates (followed by detection with immunoblotting), and after immunoprecipitation (from [^35S]methionine-labeled HeLa lysate) were compared. Identical results were obtained using these 2 methods for cleaved autoantigens (topoisomerase-1, Mi-2, RNA polymerase II large subunit, Ku-70, PARP, and NOR-90), uncleaved autoantigens (Ku-80, Ro 60k), and control substrates (β-tubulin, vinculin). […] Of note, all these additional autoantigens (with the exception of RNA polymerase I) are targeted in autoimmune myositis. However, two other tRNA synthetases (threonyl tRNA synthetase and glycyl tRNA synthetase) that are also autoantigens in autoimmune myositis, were not cleaved using this approach.

Assay [3] has as its target caspase-8 (Homo sapiens, UniProt Q14790). Put plainly: Cleavage of substrates by purified caspase-8. The assay is classed as biochemical. The note with it: 50 nM purified caspase-8; HeLa lysates treated with iodoacetamide, or radiolabeled IvTT substrate. As for the experimental part:
To confirm that these substrates were not cleaved by group III caspases, the substrates were incubated with 50 nM purified caspase-8. Cleavage assays were performed in HeLa cell lysates in which endogenous caspases had first been irreversibly inactivated by 1 mM iodoacetamide (4° C. for 15 min), prior to addition of 5 mM DTT to facilitate exogenous caspase-8 activity. No cleavage of topoisomerase-1, Mi-2, U1-70 kDa, PARP, Ku-70, RNA polymerase II large subunit, SRP-72, NuMA or Ki-67 occurred. Caspase-8 was indeed active in these lysates, as evidenced by robust caspase-3 cleavage products of PARP and U1-70 kDa seen when the IAA ‘poisoning’ step was omitted. Radiolabeled PMS1 and PMS2 (generated by IvTT) were also not cleaved by purified caspase-8.

Assay [4] has as its system K562 erythroleukemia cells. Kind of assay: Substrate cleavage in Fas-negative K562 target cells attacked by LAK cells. The assay is classed as cell-based. As for the experimental part: LAK cells were obtained by culturing human PBMCs for 4 days in LAK medium (RPMI supplemented with 10 mM Hepes pH 7.4, L-glutamine, 2% autologous plasma), and 1000 Cetus units/ml of hrIL-2 (Chiron Therapeutics, Emeryville, Calif.) (Topalian et al., 1989). […] After 2 washes with PD, cells were lysed and boiled in SDS sample buffer, and PARP, DNA-PKcs and NuMA were assayed by immunoblotting as described above.

The test system of assay [5] is K562 cells. Put plainly: Substrate cleavage in intact K562 cells during YT cell granule content-induced cytotoxicity. The class given is cell-based. The note with it: 100 μM Ac-DEVD-CHO. As to the method:
Intact cytoplasmic granules were purified from YT cells, and the granule contents were isolated using known methods (Tschopp, 1994). Some of these preparations were used for the further purification of granzyme B (Tschopp, 1994). Purity of the protease was confirmed by silver staining of overloaded SDS-polyacrylamide gels. The cytotoxic effects of YT granule contents were determined as follows: Jurkat T cells or K562 cells were radiolabeled with 100 μCi/ml [^51Cr] sodium chromate, washed, resuspended in Ca^2+-free HBSS, and then incubated with granule contents (0-5 μl) and 1 mM CaCl2 for increasing times. The percentage specific [^51Cr] was calculated using the following formula: % specific lysis=[(sample cpm−spontaneous cpm)/(maximum cpm−spontaneous cpm)]×100. […] Aliquots containing 3.4×10^5 cells were incubated for a further 90 min at 37° C. with 1 mM EDTA or 1 mM Ca^2+ and 2 μl of YT granule contents (which induces 20-40% specific chromium release in 60 min, and characteristic internucleosomal DNA degradation. The total reaction volume of each sample was 30 μl. The reactions were terminated by boiling in SDS gel buffer and samples were electrophoresed and immunoblotted as described above. Experiments were performed using 2 different preparations of granule contents and 4 different cell types (K562, Jurkat, HeLa, primary human myoblasts).

Assay [6] relates to HeLa cells. Kind of assay: Confocal immunofluorescence of morphologic changes in HeLa cells exposed to YT cell granule contents. The assay is classed as cell-based. To be noted: 100 μM Ac-DEVD-CHO. As for the experimental part:
Morphologic experiments were performed on HeLa cells grown on No. 1 glass coverslips. […] 25 μl of HBSS containing 2 mM CaCl2 was then added to each coverslip (mixed well by repeated, gentle aspiration), followed by incubation in a humidified chamber at 37° C. for 60 min. […] Coverslips were mounted on glass slides with Permafluor (Lipshaw, Pittsburgh, Pa.), and confocal microscopy was performed on a scanning confocal microscopy system (LSM 410, Carl Zeiss, Inc., Thornwood, N.J.).

The target in assay [7] is T2, caspase-1 (Homo sapiens, UniProt P29466).
T2 sequence (P29466 120-297 limits assumed): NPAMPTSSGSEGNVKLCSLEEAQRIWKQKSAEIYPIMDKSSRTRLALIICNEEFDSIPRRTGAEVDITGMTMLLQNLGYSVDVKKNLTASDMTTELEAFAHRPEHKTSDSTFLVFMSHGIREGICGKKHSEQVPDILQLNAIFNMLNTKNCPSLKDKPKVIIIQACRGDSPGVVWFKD
T2 sequence (P29466 317-404 limits assumed): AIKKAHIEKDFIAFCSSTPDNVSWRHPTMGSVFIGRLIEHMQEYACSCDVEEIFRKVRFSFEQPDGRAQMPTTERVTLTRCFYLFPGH
The note with it: cited from earlier work.

Assay [8] addresses T3, caspase-7 (Homo sapiens, UniProt P55210).
T3 sequence (P55210 24-198 limits assumed): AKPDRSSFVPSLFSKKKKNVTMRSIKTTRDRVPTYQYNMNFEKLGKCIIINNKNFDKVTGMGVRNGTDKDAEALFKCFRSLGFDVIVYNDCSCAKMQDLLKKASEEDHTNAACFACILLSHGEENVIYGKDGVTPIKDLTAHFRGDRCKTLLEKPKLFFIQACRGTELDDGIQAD
T3 sequence (P55210 207-303 limits assumed): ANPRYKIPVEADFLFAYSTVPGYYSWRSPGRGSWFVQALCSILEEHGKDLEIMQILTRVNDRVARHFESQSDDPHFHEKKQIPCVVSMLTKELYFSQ
To be noted: cited from earlier work.

The target of assay [9] is T4, caspase-3 (Homo sapiens, UniProt P42574).
T4 construct: made in house
T4 sequence (P42574 29-175 limits assumed): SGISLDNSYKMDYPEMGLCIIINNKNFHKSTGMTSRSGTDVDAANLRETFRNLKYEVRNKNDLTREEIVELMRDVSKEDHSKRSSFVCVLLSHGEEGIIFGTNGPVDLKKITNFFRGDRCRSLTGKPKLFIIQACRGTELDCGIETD
T4 sequence (P42574 176-277 limits assumed): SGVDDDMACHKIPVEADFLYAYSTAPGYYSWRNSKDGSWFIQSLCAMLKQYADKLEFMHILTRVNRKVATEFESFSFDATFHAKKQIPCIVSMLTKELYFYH
Kind of assay: Cleavage of endogenous substrates in HeLa lysates by added purified caspase-3, with inhibitors. The assay is classed as biochemical. The note with it: 100 nM inhibitor, HeLa lysate, 105 pM caspase-3, 37° C. 60 min. As to the method: as §1

The target in assay [10] is T4, caspase-3. To be noted: cited from earlier work.
In assay [11] the target is T5, caspase-10 (Homo sapiens, UniProt Q92851).
T5 sequence (Q92851 220-415 limits assumed): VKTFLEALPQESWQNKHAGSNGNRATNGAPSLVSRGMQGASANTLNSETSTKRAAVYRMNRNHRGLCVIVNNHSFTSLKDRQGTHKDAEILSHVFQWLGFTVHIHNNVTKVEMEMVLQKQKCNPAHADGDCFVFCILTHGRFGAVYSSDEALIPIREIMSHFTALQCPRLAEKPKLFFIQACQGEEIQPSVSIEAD
T5 sequence (Q92851 416-521 limits assumed): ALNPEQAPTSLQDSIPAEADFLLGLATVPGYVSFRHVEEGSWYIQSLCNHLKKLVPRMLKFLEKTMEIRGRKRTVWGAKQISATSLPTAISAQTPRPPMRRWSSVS
The note with it: cited from earlier work.

Where [12] appears, read: 100 μM Ac-DEVD-CHO, LAK:K562 5:1.

caspase-8, sequence (Q14790 217-374 limits assumed, species assumed): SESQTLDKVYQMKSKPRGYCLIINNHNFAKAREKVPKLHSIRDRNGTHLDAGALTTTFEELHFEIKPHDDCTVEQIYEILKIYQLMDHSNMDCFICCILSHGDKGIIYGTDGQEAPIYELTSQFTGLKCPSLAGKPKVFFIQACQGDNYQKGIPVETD
caspase-8, sequence (Q14790 385-479 limits assumed, species assumed): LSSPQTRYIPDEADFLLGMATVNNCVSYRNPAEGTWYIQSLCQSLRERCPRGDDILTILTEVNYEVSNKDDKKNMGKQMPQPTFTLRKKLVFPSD

For `NC(=O)CI` [iodoacetamide], the “cleavage of PARP” value in [1] is listed as “almost entirely abolished”.
KI-67: autoantigen: the “susceptibility to cleavage by granzyme B” value in assay [2] is given as “cleaved”. Besides, the “cleavage by caspase-8” value in [3] is on record as “No cleavage”.
Consider Ku-70: autoantigen, for which, in [2], the “susceptibility to cleavage by granzyme B” value is reported as “efficiently cleaved”. The “cleavage by caspase-8” value in assay [3] was “No cleavage”.
Consider Ku-80: uncleaved autoantigen, for which the “susceptibility to cleavage by granzyme B” value in assay [2] is on record as “uncleaved”.
In the case of “N-(N-Ac-Asp-Glu-Val)-3-amino-4-oxobutanoic acid [Ac-DEVD-CHO]”, in [4] (setting [12]), the “100 kDa granzyme B-specific fragment of DNA-PKcs” value is on record as “insensitive” and the “inhibition of generation of caspase-3-specific fragments of DNA-PKcs” value is > 90%. Also, in [4] (100 μM Ac-DEVD-CHO, LAK:K562 5:1, 4 h), the PARP cleavage entry is recorded as “entirely abolished”. The “cleavage of PMS1” value in [4] (intact cell killing by LAK cells, Ac-DEVD-CHO added) is recorded as “unaffected”. Also, in [1], the “cleavage of PARP” value is “almost entirely abolished”. For the same compound, in assay [1] (inhibitor added prior to granzyme B), the “generation of caspase-3-specific fragments of NuMA (185 kDa) and DNA-PKcs (150 kDa C-terminal)” value is “abolished”. In assay [5] (YT granule contents), the “generation of 150 kDa and 120 kDa DNA-PKcs fragments” value was “entirely inhibited”. For the same compound, in assay [5] (YT granule contents plus Ca2+), the “generation of the 89 kDa PARP fragment” value is listed as “completely inhibited”; the “production of granzyme B-specific cleavage fragments of DNA-PKcs and NuMA” value was “not inhibited”. Also, in [6], the “granule content-induced surface blebbing, nuclear fragmentation, apoptotic bodies, redistribution of nuclear autoantigens” value is “prevented”.
Broadly, the Ki is a dissociation constant, usually derived from enzyme kinetics or from competition with a known ligand. Take “N-(N-Ac-Tyr-Val-Ala)-3-amino-4-oxobutanoic acid [Ac-YVAD-CHO]”: the Ki in assay [7] was 0.6 nM; in assay [8] it was > 10000 nM; in [10], > 10000 nM; in assay [11] it was 408 nM. Further, the “substrate fragments generated by the activity of caspase-3” value in assay [9] is listed as “unaffected”.
As for PMS2: autoantigen, in [2], the “susceptibility to cleavage by granzyme B” value is “cleaved”. The “cleavage by caspase-8” value in [3] is on record as “not cleaved”.
With RNA polymerase I: autoantigen, the “susceptibility to cleavage by granzyme B” value in assay [2] is on record as “cleaved”.
On the same count and under the same terms, as for Ro52 kDa: ribonucleoprotein autoantigen, the entry is “not susceptible to cleavage”.
As to Ro 60k: ribonucleoprotein autoantigen, the “susceptibility to cleavage by granzyme B” value is listed as “uncleaved” in [2] and “not susceptible to cleavage” in assay [2] (listed as Ro 60 kDa).
As to Topoisomerase I: autoantigen, the “susceptibility to cleavage by granzyme B” value in assay [2] (listed as topoisomerase-1) is “efficiently cleaved”. Further, the “cleavage by caspase-8” value in [3] is “No cleavage”.
Regarding “U1-70 kDa: autoantigen cleaved by caspases during apoptosis”, the “susceptibility to cleavage by granzyme B” value in [2] is “efficiently cleaved”. The “cleavage by caspase-8” value in assay [3] is “No cleavage”.
For the compound “nuclear mitotic apparatus protein [NuMA]”, the “cleavage by caspase-8” value in assay [3] is recorded as “No cleavage”.
With poly(ADP-ribose)polymerase [PARP], in assay [2], the “susceptibility to cleavage by granzyme B” value is on record as “efficiently cleaved”. Further, in assay [3], the “cleavage by caspase-8” value was “No cleavage”.
“vinculin: control substrate, non-autoantigen [reference compound]”: the “susceptibility to cleavage by granzyme B” value in [2] is “not cleaved”.
